Experimental data taken from patent publication US20220153847A1 (Chugai, published 2022).

Columns and labels:
[1] = target: HLA-DQ2.5/33mer gliadin peptide on IHW9088 cells (human); test: cell-based or functional assay
HLA-DQ7.5 on Ba/F3 cells = target: T1, HLA-DQ7.5 on Ba/F3 cells (human, UniProt P01909 24-216; P01920 33-230, limits assumed); test: FACS, Ba/F3 cells; IC17=0%, DQN0139bb//IC17=100%;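 also: flow cytometry binding of anti-HLA-DQ antibodies at 5 µg/mL, incubated 30 min at room temperature with Ba/F3 lines presenting HLA-DQ/peptide complexes; antibody tested at 5 microgram/mL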
T1 construct: whole, on cells; also called Ba/F3-HLA-DQ7.5
T1 sequence (P01920 33-230 limits assumed, chain 2 of 4, other chains not shown): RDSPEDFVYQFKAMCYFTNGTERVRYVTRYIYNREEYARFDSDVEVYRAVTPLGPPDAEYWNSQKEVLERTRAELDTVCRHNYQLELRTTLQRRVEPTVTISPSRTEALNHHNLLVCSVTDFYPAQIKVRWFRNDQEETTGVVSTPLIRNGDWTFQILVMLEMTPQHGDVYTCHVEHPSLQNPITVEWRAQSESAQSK

HLA-DQ8 on Ba/F3 cells = target: T2, HLA-DQ8 on Ba/F3 cells (human, UniProt P01909 24-216; P01920 33-230, limits assumed); test: FACS, Ba/F3 cells; IC17=0%, DQN0139bb//IC17=100%;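 also: flow cytometry binding of anti-HLA-DQ antibodies at 5 µg/mL, incubated 30 min at room temperature with Ba/F3 lines presenting HLA-DQ/peptide complexes; antibody tested at 5 microgram/mL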
T2 construct: whole, on cells; also called Ba/F3-HLA-DQ8
T2 MHC II alpha: not shown
T2 MHC II beta: not shown

[2] = target: T3, HLA-DQ2.5/CLIP peptide complex on Ba/F3 cells (human); test: FACS, Ba/F3 cells; IC17=0%, DQN0139bb//IC17=100%;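 also: flow cytometry binding of anti-HLA-DQ antibodies at 5 µg/mL, incubated 30 min at room temperature with Ba/F3 lines presenting HLA-DQ/peptide complexes; antibody tested at 5 microgram/mL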
T3 construct: whole, on cells; also called Ba/F3-HLA-DQ2.5/CLIP
T3 sequence (P04233 96-124, chain 2 of 2, other chains not shown): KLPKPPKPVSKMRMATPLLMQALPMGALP

[3] = target: T4, HLA-DQ2.5/Thyroperoxidase peptide complex on Ba/F3 cells (human); test: FACS, Ba/F3 cells; IC17=0%, DQN0139bb//IC17=100%;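 also: flow cytometry binding of anti-HLA-DQ antibodies at 5 µg/mL, incubated 30 min at room temperature with Ba/F3 lines presenting HLA-DQ/peptide complexes; antibody tested at 5 microgram/mL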
T4 construct: whole, on cells; also called Ba/F3-HLA-DQ2.5/TPO; HLA-DQ2.5/TPO

[4] = target: T5, HLA-DQ2.5/33mer gliadin peptide complex on Ba/F3 cells (human); test: FACS, Ba/F3 cells; IC17=0%, DQN0139bb//IC17=100%
T5 construct: whole, on cells; also called Ba/F3-HLA-DQ2.5/33mer gliadin

[5] = target: T6, HLA-DQ2.5/alpha 1 gliadin peptide complex on Ba/F3 cells (human); test: FACS, Ba/F3 cells; IC17=0%, DQN0139bb//IC17=100%
T6 construct: whole, on cells; also called Ba/F3-HLA-DQ2.5/alpha 1 gliadin; HLA-DQ2.5/a1 gliadin

[6] = target: T7, HLA-DQ2.5/alpha 2 gliadin peptide complex on Ba/F3 cells (human); test: FACS, Ba/F3 cells; IC17=0%, DQN0139bb//IC17=100%
T7 construct: whole, on cells; also called Ba/F3-HLA-DQ2.5/alpha 2 gliadin; HLA-DQ2.5/a2 gliadin

[7] = target: T8, HLA-DQ2.5/gamma 1 gliadin peptide complex on Ba/F3 cells (human); test: FACS, Ba/F3 cells; IC17=0%, DQN0139bb//IC17=100%
T8 construct: whole, on cells; also called Ba/F3-HLA-DQ2.5/gamma 1 gliadin; HLA-DQ2.5/g1 gliadin

[8] = target: T9, HLA-DQ2.5/gamma 2 gliadin peptide complex on Ba/F3 cells (human); test: FACS, Ba/F3 cells; IC17=0%, DQN0139bb//IC17=100%
T9 construct: whole, on cells; also called Ba/F3-HLA-DQ2.5/gamma 2 gliadin; HLA-DQ2.5/g2 gliadin

[9] = target: T10, HLA-DQ2.5/omega 1 gliadin peptide complex on Ba/F3 cells (human); test: FACS, Ba/F3 cells; IC17=0%, DQN0139bb//IC17=100%
T10 construct: whole, on cells; also called Ba/F3-HLA-DQ2.5/omega 1 gliadin; HLA-DQ2.5/w1 gliadin

[10] = target: T11, HLA-DQ2.5/omega 2 gliadin peptide complex on Ba/F3 cells (human); test: FACS, Ba/F3 cells; IC17=0%, DQN0139bb//IC17=100%
T11 construct: whole, on cells; also called Ba/F3-HLA-DQ2.5/omega 2 gliadin; HLA-DQ2.5/w2 gliadin

[11] = target: T12, HLA-DQ2.5/BC hordein peptide complex on Ba/F3 cells (human); test: FACS, Ba/F3 cells; IC17=0%, DQN0139bb//IC17=100%
T12 construct: whole, on cells; also called Ba/F3-HLA-DQ2.5/BC hordein

[12] = target: T13, HLA-DQ2.5/alpha 3 gliadin peptide complex on Ba/F3 cells (human); test: FACS, Ba/F3 cells; IC17=0%, DQN0139bb//IC17=100%
T13 construct: whole, on cells; also called Ba/F3-HLA-DQ2.5/alpha 3 gliadin; HLA-DQ2.5/a3 gliadin

[13] = target: T14, HLA-DQ2.5/alpha 1b gliadin peptide complex on Ba/F3 cells (human); test: FACS, Ba/F3 cells; IC17=0%, DQN0139bb//IC17=100%
T14 construct: whole, on cells; also called Ba/F3-HLA-DQ2.5/alpha 1b gliadin; HLA-DQ2.5/a1b gliadin

[14] = target: T15, HLA-DQ2.5/avenin 1 peptide complex on Ba/F3 cells (human); test: FACS, Ba/F3 cells; IC17=0%, DQN0139bb//IC17=100%
T15 construct: whole, on cells; also called Ba/F3-HLA-DQ2.5/avenin 1

[15] = target: T16, HLA-DQ2.5/avenin 2 peptide complex on Ba/F3 cells (human); test: FACS, Ba/F3 cells; IC17=0%, DQN0139bb//IC17=100%
T16 construct: whole, on cells; also called Ba/F3-HLA-DQ2.5/avenin 2

[16] = target: T17, HLA-DQ2.5/avenin 3 peptide complex on Ba/F3 cells (human); test: FACS, Ba/F3 cells; IC17=0%, DQN0139bb//IC17=100%
T17 construct: whole, on cells; also called Ba/F3-HLA-DQ2.5/avenin 3

[17] = target: T18, HLA-DQ2.5/hordein 1 peptide complex on Ba/F3 cells (human); test: FACS, Ba/F3 cells; IC17=0%, DQN0139bb//IC17=100%
T18 construct: whole, on cells; also called Ba/F3-HLA-DQ2.5/hordein 1

[18] = target: T19, HLA-DQ2.5/hordein 2 peptide complex on Ba/F3 cells (human); test: FACS, Ba/F3 cells; IC17=0%, DQN0139bb//IC17=100%
T19 construct: whole, on cells; also called Ba/F3-HLA-DQ2.5/hordein 2

[19] = target: T20, HLA-DQ2.5/secalin 1 peptide complex on Ba/F3 cells (human); test: FACS, Ba/F3 cells; IC17=0%, DQN0139bb//IC17=100%
T20 construct: whole, on cells; also called Ba/F3-HLA-DQ2.5/secalin 1

[20] = target: T21, HLA-DQ2.5/secalin 2 peptide complex on Ba/F3 cells (human); test: FACS, Ba/F3 cells; IC17=0%, DQN0139bb//IC17=100%
T21 construct: whole, on cells; also called Ba/F3-HLA-DQ2.5/secalin 2

[21] = target: T22, HLA-DQ2.5/14mer 1 peptide complex on Ba/F3 cells (human); test: FACS, Ba/F3 cells; IC17=0%, DQN0139bb//IC17=100%
T22 construct: whole, on cells; also called Ba/F3-HLA-DQ2.5/14mer 1

[22] = target: T23, HLA-DQ2.5/26mer gliadin peptide complex on Ba/F3 cells (human); test: FACS, Ba/F3 cells; IC17=0%, DQN0139bb//IC17=100%
T23 construct: whole, on cells; also called Ba/F3-HLA-DQ2.5/26mer gliadin

[23] = target: T24, HLA-DQ2.5 on HLA-DQ2.5-positive PBMC B cells (human, UniProt P01909 24-254; P01920 33-261); test: FACS, PBMC B cells; IC17=0%, DQN0139bb//IC17=100%
T24 construct: whole, on cells; also called HLA-DQ2.5+ PBMC B cell
T24 MHC II alpha: not shown
T24 MHC II beta: not shown

B1: DQN0344xx//IC17 (bispecific antibody, human IgG1, kappa)
heavy 1: QSLEESGGGLVKPGGTLTLTCTASGFSFSSSYWMCWVRQAPGKGLEWVACVYGGSDTTYYASWTKGRFTISKGSSTTVALQVTSLTAADTATYFCARDPLNYYYYGELNLWGPGTLVTVSSASTKGPSVFPLAPSSKSTSGGTAALGCLVKDYFPEPVTVSWNSGALTSGVHTFPAVLQSSGLYSLSSVVTVPSSSLGTQTYICNVNHKPSNTKVDKRVEPKSCDKTHTCPPCPAPELRRGPSVFLFPPKPKDTLMISRTPEVTCVVVDVSHEDPEVKFNWYVDGVEVHNAKTKPREEQYNSTYRVVSVLTVLHQDWLNGKEYKCKVSNKALPAPIEKTISKAKGQPREPQVYTLPPSREEMTKNQVSLTCLVKGFYPSDIAVEWESNGQPENNYKTTPPYLDSDGSFFLYSKLTVDKSRWQQGNVFSCSVMHEALHNHYTQESLSLSP
light 1: AVVLTQTASPVSAAVGGTVTIRCQATENIYSGLAWYQQKPGQPPKVLIYYVSTLASGVPSRFKGSGSGTEYTLTISGVQCDDAATYYCQTYHDISNVTFGGGTKVEIKRTVAAPSVFIFPPSDEQLKSGTASVVCLLNNFYPREAKVQWKVDNALQSGNSQESVTEQDSKDCTYSLSSTLTLSKADYEKHKVYACEVTHQGLSSPVTKSFNRGEC
heavy 2: QVQLQQSGPQLVRPGASVKISCKASGYSFTSYWMHWVNQRPGQGLEWIGMIDPSYSETRLNQKFKDKATLTVDKSSSTAYMQLSSPTSEDSAVYYCALYGNYFDYWGQGTTLTVSSASTKGPSVFPLAPSSKSTSGGTAALGCLVKDYFPEPVTVSWNSGALTSGVHTFPAVLQSSGLYSLSSVVTVPSSSLGTQTYICNVNHKPSNTKVDKRVEPKSCDKTHTCPPCPAPELRRGPSVFLFPPKPKDTLMISRTPEVTCVVVDVSHEDPEVKFNWYVDGVEVHNAKTKPREEQYNSTYRVVSVLTVLHQDWLNGKEYKCKVSNKALPAPIEKTISKAKGQPREPQVYTLPPSRKEMTKNQVSLTCLVKGFYPSDIAVEWESNGQPENNYKTTPPYLDSDGSFFLYSKLTVDKSRWQQGNVFSCSVMHEALHNHYTQKSLSLSP
light 2: DIQMTQSSSSFSVSLGDRVTITCKASEDIYNRLAWYQQKPGNAPRLLISGATSLETGVPSRFSGSGSGKDYTLSITSLQTEDVATYYCQQYWSTPYTFGGGTKLEVKRTVAAPSVFIFPPSDEQLKSGTASVVCLLNNFYPREAKVQWKVDNALQSGNSQESVTEQDSKDSTYSLSSTLTLSKADYEKHKVYACEVTHQGLSSPVTKSFNRGEC
IC50 (read off the curve) [1]: ~0.2 microgram/mL
% MFI (HLA-DQ7.5 on Ba/F3 cells): 0%
% MFI (HLA-DQ8 on Ba/F3 cells): 0%
% MFI [2]: 0%
% MFI [3]: 0%
% MFI [4]: 99.1%
% MFI [5]: 60.1%
% MFI [6]: 90.4%
% MFI [7]: 0.2%
% MFI [8]: 0.2%
% MFI [9]: 37.5%
% MFI [10]: 0.2%
% MFI [11]: 0%
% MFI [12]: 14.6%
% MFI [13]: 72.2%
% MFI [14]: 20.7%
% MFI [15]: 16.8%
% MFI [16]: 17.8%
% MFI [17]: 11.9%
% MFI [18]: 0%
% MFI [19]: 31.6%
% MFI [20]: 26.5%
% MFI [21]: 0%
% MFI [22]: 0.2%
% MFI [23]: 0%
